Measurements reported in PMC11965310.

How the values were obtained:
[1] = molecular target: VHH H3-2; assay: crystal structure; 280 μM H3-2 with 1 mM tau-Cter peptide; 23% PEG-MME 2000, 0.1 M potassium acetate; 1.8 Å
[2] = molecular target: VHH H3-2; assay: SEC; Superdex 75 Increase 10/300 GL, PBS, 16 °C; 20 µM VHH without or with 40 µM tau-Cter peptide

B1: VHH H3-2 (VHH)
VHH: EVQLQASGGGFVQPGGSLRLSCAASGYTSGDEIMGWFRQAPGKEREFVSAISWQSGTSTYYADSVKGRFTISRDNSKNTVYLQMNSLRAEDTATYYCAPMTLAETYYEWLISGYWGQGTQVTVSS
With B1 the stoichiometry N [1] was 2 and the stoichiometry N [2] was 2.
